The DeepSol protein solubility set

Assay: soluble on expression in E. coli; label from the status in PepcDB or PDB records

For “MLIDKTIILSVAFFTSSVFGQTSDKDFLKKPHVLPSAEAAYHAVYHELDSVKSGNRDEKVFGQLYVALIEDQFTFGGDLSTWPDSAFQKGDRGCKPFMAANLHNLCNNEYFLVHQDMIKLVKTVFERKNQADPSFDTICLANNGFVVSDDPENHLVYRYKHRIPMTYKATSNDQKCFGTYDTRTDTFTCMRYDASTKKMSPFELQNFLWKENTGTFHLGNGNAEVFCKKPFYTNK”, the “soluble on expression in E. coli” value was “not soluble”.
With “MGTGGITSNAHVVSPTWHHKHVPPMDDDSVLQRDIGELLSRWGGLQMAVKNQWGGHDSLKKSQELAHNLFHLISQSNGSIFFLLL” the “soluble on expression in E. coli” value was “not soluble”.
For “MSLDGKPLADKMRPTTLNNYMGQNKVLGENTMLRNLLQANDIPSIILWGPPGCGKTTLAHIIAKNAQKSSSRFVTLSATSASTSDVREFIKQAQNEQRLFKRKTILFVDEIHRFNKMQQDTFLPHVECGTITLIGATTENPSFQVNTALLSRCRVIVLEKLSVEAMETILMRAVDSLGLKVLKDGEQLVGSSSDVSETSVYVEEKALTTLAHLCDGDARTGLNGLQLSVQASLAAEKDPIKQGIVIKEEHIKEGLQRSHILYDRAGEEHYNCISALHKSMRGSDKNASLYWLGRMLEGGEDPLYVARRLVRFASEDIGLADPQALTQAVSTYQACHFIGMPECDVILAQCVMYMACAPKSVTVYSAYNKVKNCLKNHKGPLPPVPLHLRNAPTKLMKGLGYGKGYKYNPNFSEPVEQDYMPEEMKGVTEGHHHHHH”, the “soluble on expression in E. coli” value was “not soluble”.
For “MKKQKSFPMSAYEDLLGKITAPTITVENWEGILAFCDMINNDFEGSKTGIKSLRKRLNNRDPHVVLLAISVLDSCWANCEERFRKEVSSAQFINELKALCTSSQRQVAEKMRLTVQKWVDTECKTEQSLSLIVTLHKNLVADGYSFVVDDPKSKTKAIDAKFANDPNYVGSAQEEEAIAKAIAASLADAEKQEKAKKSTSTMYPSAKASSPAVQTNSNIPEKNVRALYDFEAAESNELSFVAGDIITITDESNPHWWTGRIGTQQGLFPSSFVTNQLDDLKSKETDSSQKAPEVVASINEAILVRCLQVLHECDPTGERQDPEDLAQLEAASYAQGNLIDAHLASIDRQSNSLAQIDVAIRDVLALYDDAIQKGGFQHQSQGMYQQPMQQYNYQQPPNRAYYPPTGPVQQQQPQQYPPQHYPAPGAQPQYACPPNSVPQPQQQQQQWPAPSSQPQQY”, the “soluble on expression in E. coli” value was “not soluble”.
For “MGSDKIHHHHHHMASLQIAHNTRIVKEAARIAGFDYCGISAARFLEEEAPRLESWLNRNQHGTMSWMENYFDKRLDPRKLVDGAKSVVSVLLNYTPAPEDEILSTGETKISRYAYGKDYHYVLKDKFKQMLQHITEQIGEVNGRAFVDSAPVMDKAWAKQGGLGWVGKHSNIITKDSGSYFFIGELIIDLELDADGPIKDYCGTCTRCIDACPTNAITEPYQVDGSKCISYLTIELKEQIPSEFKEQMQGWAFGCDICQEVCPWNRFAQPINKNEFSPSEELKKYFEMPLKEITKEVFNILFKDSTIKRTKIEGLSRNLTFIKKET”, the “soluble on expression in E. coli” value was “not soluble”.
For “CKRNVFNPSIPNRTQFIEDPIANLSIPSKDAAIKVTPYTFEGTSGRVYAHVERFFKFNGEYYIIFFRRYIYDTQAGTYAETAPGGNYHLIKIGKSMKYQEVAVNLNQDHPGLYARYTTIAQGNAYIKGSDIYVPINMADLSKGYYQSSSADLSKWTTNNNTALDVAGLGLTKIEVMDTSRITVGKYTYMYNGGGLQFSINRLEDRMRQAAERYETKMVFNEADFNNLHMFDIGMDTDGDNQIDYRMNPTNYIENDTDYSWIGMQTPHQVWIMPFNDGEKDYLIRFVEYCSGMYNINTLKTERDSAKTKADTALTQALALVSNPNSSKAEIAEACYQSIRNNLEYEVRNYFIGKYESVFKTSTPTAYVVPNYALTHYVIEIVDIQ”, the “soluble on expression in E. coli” value was “not soluble”.
For “MAIKNEIKNCLIMSVNPSYPLPLLCQYIPRYHPQMPTCPLFESKSIITPVFYFNCKRMDRSIDRRLCGHCHQSIGSEALVAMNRLWHPDHFTCSSCKRPIKQTFQAADNHAYCVQCFAQKYNPKCAGCMETLVDTCLLALDRHWHPRCFTCSSCNRPLPNGEFYLVDDKPYDLDCHWAKRLEKREHMERGER”, the “soluble on expression in E. coli” value was “not soluble”.
In the case of “MQVLLLEDEPRLGQAVARALAAQGYGVRWARSLGEAREAFLELEPDLMVLDVRLPEDEDGGFRFAKEAREAGYKGPILFLTARDALEDRVQGLDLGGDDYLVKPFHLEELLARVRALLRRASEVKASRVRLGPLEVDLAGRGVYLAGRRVDLSLKEFALLETLLLHPGRVFAPEELAERVFGDPEKVGAVKVYVHYLRQKLFPEVVRTVPGGYRLGHEP”, the “soluble on expression in E. coli” value is reported as “soluble”.
For “MGSDKIHHHHHHMPTTMTTNIKNNDFKDVVFNRQSVRQFDPTVKIDREELQTIIDETISAPSACNLQSWHFVVADSADGKAKAKSVLMPFNYPQIDSCSAMIFVLGDTQSHLVYRDVWNKACEEGRITPEKRDQIFKTFLPMYENASPEFLQADAMIDSSMAAMQLLLIARAHGYDANPIAGYAADKVATTFGLDAKRYVPVMAIALGKAASEPITTTRYAGTQVTEFI”, the “soluble on expression in E. coli” value was “not soluble”.
In the case of “MHSKMDCVSRSPLFSPLAPAVKAKLITVTHHRKFYQKGQLIRQPLDHQEGMLILDEGTAKIYALAANGKEKIIELLRSGDVVGQHWLFAPHENQGFIQATSDAWVCSIQYDDFQRLLGESASLSLAMINNFGNQLIEAEKNQLRRDLLDAKARLMAYLRDCAVESGQIEFELPLKKKELANILGITPETLSRQFKQLAAEGQIIVNKRQITIC”, the “soluble on expression in E. coli” value is reported as “not soluble”.
With “MTLGLKDLYYAVCTEADGAESYGTPKKMAEAMSADLSVKTADGSLYADDTLSESVTEFASGTLKLGIKDLTPEVLAELLGQAVDKNSVVWAGKEDEPPYVAVGFRAKKTGGKYRYVWLLKAKFKVPSEKYETKGESIKFNTPDIEASFTTRKKDNLWKADFVGTEESAAAKTWFTAVPEKAAAMESVLEHHHHHH” the “soluble on expression in E. coli” value was “soluble”.
With “MGSDKIHHHHHHMRLPLNQRVAILLHEGTTGTIGKTGLALLRYSEAPIVAVIDRNCAGQSLREITGIYRYVPIVKSVEAALEYKPQVLVIGIAPKGGGIPDDYWIELKTALQAGMSLVNGLHTPLANIPDLNALLQPGQLIWDVRKEPANLDVASGAARTLPCRRVLTVGTDMAIGKMSTSLELHWAAKLRGWRSKFLATGQTGVMLEGDGVALDAVRVDFAAGAVEQMVMRYGKNYDILHIEGQGSLLHPGSTATLPLIRGSQPTQLVLVHRAGQTHNGNNPHVPIPPLPEVIRLYETVASGGGAFGTVPVVGIALNTAHLDEYAAKEAIAHTIAETGLPCTDVVRFGADVLLDAVMQN” the “soluble on expression in E. coli” value was “not soluble”.
For “MEYDAFITNQLRGAQNQSSGLTTRYEQMSKIDNLLADKSSSLSGSLQSFFTSLQTLVSNAEDPAARQALIGKAEGLVNQFKTTDQYLRDQDKQVNIAIGSSVAQINNYAKQIANLNDQISRMTGVGAGASPNDLLDQRDQLVSELNKIVGVEVSVQDGGTYNLTMANGYTLVQGSTARQLAAVPSSADPTRTTVAYVDEAAGNIEIPEKLLNTGSLGGLLTFRSQDLDQTRNTLGQLALAFADAFNAQHTKGYDADGNKGKDFFSIGSPVVYSNSNNADKTVSLTAKVVDSTKVQATDYKIVFDGTDWQVTRTADNTTFTATKDADGKLEIDGLKVTVGTGAQKNDSFLLKPVSNAIVDMNVKVTNEAEIAMASESKLDPDVDTGDSDNRNGQALLDLQNSNVVGGNKTFNDAYATLVSDVGNKTSTLKTSSTTQANVVKQLYKQQQSVSGVNLDEEYGNLQR”, the “soluble on expression in E. coli” value was “soluble”.
With “MGSDKIHHHHHHMHDYYQLVTVADLPQDNRQILDTLTAIGAGKLPNDLRLLNYYRSIPVNYGATVESVERGSVELTVNQQQAIVMQLEKQVFLKSGHFPKDVLAAVTYVNIDKSVAILANFAYAVIRSERRQFVRVEVKDKIEASFSGDGFTVAGLLNDISLGGVAISATIPTHPDAGIKGKVTLRLPGGPFEMPAQVLRVIPAYYTDLCIIEIQPDNRTEKGISQYIFQRQVEIIRELKDSIF” the “soluble on expression in E. coli” value was “not soluble”.
For “MAGDPMIMVNLRIINFIGDIMKIRGICYRCGAEDELIDGLCPICYAQEHPLIEVPDRVEIEVCHMCGSYKRKIWQTPKSEEAFEILNEIAYYATKDAIKKKSVMVEVEIYPEVTQLPGGKRSKLIIPVHIVARGRLPGEKEDRTYEKDIEVHLRMVQCPRCSRFMSNYYEATLQVRAMNRYLTEEEREELDNFVREELAKRLKKDRMAFIAKFIPQKEGLDYQLGSVGAARNVAQRIKEKYGGKITETATLVGVDRDSGKELYRVTVSVRVPEYKVGDVVEYKDKYYLVTAITEDKVYMKSIDYKREKIGLAWHIAEKETKMAKKKDELDTATVIATTPTIMVMDDKSYEVYEFDNIGDVKIKEGDKVKIFKKEGVSYLVNKIEGKDKQLEHHHHHH”, the “soluble on expression in E. coli” value was “soluble”.
In the case of “MAHHHHHHMRRTLALYKQGRSREPNVGRLLYGKRKNLVHHASEAKPSVTAVLAQTPTERLPVAVKHALQVKELHREQIATLLKQHRALRRFDRTEVIVQALRDAKQPLTSQHYCVLMAHANDERQTRRALQFWKDAVSEGKVNERLHGALMSTYRNAGNWRAAMRHCERMWRDQQVLDPLAAHAVMNACRRYGPWQMGLKVFSDAVQHGTKPNGVVYLELLRLIAQSKMPARWMYGLAILRALEASVEVTAGHYNAVLATMGGRNWEKGIELFHSMQVHNVQPSTETLNTVQQLHPHSVSHCIRCVAEAHALGMPITDTMYRNVLLNLFRMQLNNEATQFAEREYKLDCVDAGNPLTHTLSLSVAMVDALLSHPRPHDALLVYESFQDKIGDVVAAATRQLGTSGSLEQRWLVQGRVAVVDHNVLLSTTFESLIHHYDSVFVPFASVRLLVRRARENGHSVQGLHMKTTLRRIGLLLKREEWRMLRVLPYAHQLLAHTYLSEGGPASPEALKALREEAETQSLLPESPQTPTAVAKAVSAYGQALLRRLTPVGEAAEVAGAVRADQSGERGTEDAAKNLVIREAAGGAADTGASSLVSSKAWPAATAPFPMVLHSPRRITSVERVTAVAAMLKSLNPDAEVHVLSTNASQLAAVRHWNAVRVGVLLVPVHYPDQLRQMAPPALPISEGAVAAAMAAPGFRGPKPRL”, the “soluble on expression in E. coli” value is reported as “not soluble”.
For “MGSDKIHHHHHHSNINPSNGEGRDPLENFNRAMWKINYEVIDPHIFKPVAKGWRDYVPAPIKRSLVNIANNLDEPASFVNRLIEGDGQKAMRHFTRFWINSTFGLAGLIDWASQIKELKLENGNREFGDTLGHYGVPAGSYIMAPGYGPITPRQAVGKVVDSVYPMLSMLATPWMLTKFFVQSIDTRAQFINQEALLTNSADPYISFREAYFQNLRFKVKDGDVSDIQEQLSQEELDQID”, the “soluble on expression in E. coli” value was “not soluble”.
In the case of “MAHHHHHHMLKFRERLSKNCLPAFNLELVYQCAERALEEELNETCSAAKCVPMSGISERIFVGTWRDAADEKLLRQMCITHTLNVARELVDTEEMHRVESVPFVTSKSIPLSDSLDEDIVHHFEDAFEFIRGATRNGRILVYCRRGMSRSAAIVVAYLMESEGMSFCDAHNDVKDKRPCISLNLAFLQRLQEYEEHLEKVRAAARTN”, the “soluble on expression in E. coli” value is reported as “not soluble”.
With “RHQVESSPLFRALALRCNQTMVTLRSANMFHAYGFLAKVFEILAKHKISVDLITTSEISVSLTLDQTDTSGGAPQLPQAAREELEELCKVEVEHDLCLVALIGNKMSERKGYAKQVFGTLEDLNLRMICYGASPHNLCFLVNESVAKQAIQKLHTELFEQ” the “soluble on expression in E. coli” value was “not soluble”.
In the case of “MGSDKIHHHHHHMSKRMIITVGDARVGKSTVIKLLLEIFAQQGKRIKVYNQESFPVFQAYEHIATIKKFNLSNDDADAITDDLNHPELDVMIVDMPGQDIEKVIQYIESASLFEVVVKFGWNLTFLQPISHRKDCIYYLNAIIQNATNNANYVVVKNYHFAPEFREYEEKMRKKLLIIGGTEVELMALHRNHYQAMEKADKPYSQVCQDLSIILFWRSFIFQWIKKFHHSVMNNHLAIKYLGLD”, the “soluble on expression in E. coli” value is reported as “not soluble”.
